From patent US20060026702A1, “Phosphoinositide 3-kinase mediated inhibition of GPCRs” (DUKE UNIVERSITY, priority 2002, published 2006)

T1: βARK1 (Bos taurus, UniProt P21146)
T1 construct: gift from Dr. Robert Lefkowitz
T1 sequence (P21146 1-689): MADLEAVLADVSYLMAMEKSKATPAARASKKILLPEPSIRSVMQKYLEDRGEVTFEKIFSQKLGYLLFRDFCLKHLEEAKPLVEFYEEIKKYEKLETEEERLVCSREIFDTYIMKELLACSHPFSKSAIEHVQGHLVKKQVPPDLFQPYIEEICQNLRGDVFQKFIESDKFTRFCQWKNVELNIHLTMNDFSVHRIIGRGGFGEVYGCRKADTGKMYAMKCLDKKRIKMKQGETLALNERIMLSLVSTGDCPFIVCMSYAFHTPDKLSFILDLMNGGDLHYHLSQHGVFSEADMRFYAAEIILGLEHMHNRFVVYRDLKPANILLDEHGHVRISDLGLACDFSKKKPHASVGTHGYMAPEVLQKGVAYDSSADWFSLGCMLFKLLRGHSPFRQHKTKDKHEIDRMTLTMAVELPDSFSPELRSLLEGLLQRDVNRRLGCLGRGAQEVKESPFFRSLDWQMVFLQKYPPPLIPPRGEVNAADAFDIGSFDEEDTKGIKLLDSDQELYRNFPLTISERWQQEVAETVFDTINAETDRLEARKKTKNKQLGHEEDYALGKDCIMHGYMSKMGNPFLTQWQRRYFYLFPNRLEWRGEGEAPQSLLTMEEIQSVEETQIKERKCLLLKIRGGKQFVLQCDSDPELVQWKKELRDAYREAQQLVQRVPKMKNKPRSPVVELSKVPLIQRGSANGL

B1: ΔPI3Kγ: HA tagged PI3 Kp110γ mutant, Δ942-981, deletion in ATP binding site; catalytically inactive (protein)
chain: MELENYKQPVVLREDNCRRRRRMKPRSAASLSSMELIPIEFVLPTSQRKCKSPETALLHVAGHGNVEQMKAQVWLRALETSVAADFYHRLGPHHFLLLYQKKGQWYEIYDKYQVVQTLDCLRYWKATHRSPGQIHLVQRHPPSEESQAFQRQLTALIGYDVTDVSNVHDDELEFTRRGLVTPRMAEVASRDPKLYAMHPWVTSKPLPEYLWKKIANNCIFIVIHRSTTSQTIKVSPDDTPGAILQSFFTKMAKKKSLMDIPESQSEQDFVLRVCGRDEYLVGETPIKNFQWVRHCLKNGEEIHVVLDTPPDPALDEVRKEEWPLVDDCTGVTGYHEQLTIHGKDHESVFTVSLWDCDRKFRVKIRGIDIPVLPRNTDLTVFVEANIQHGQQVLCQRRTSPKPFTEEVLWNVWLEFSIKIKDLPKGALLNLQIYCGKAPALSSKASAESPSSESKGKVRLLYYVNLLLIDHRFLLRRGEYVLHMWQISGKGEDQGSFNADKLTSATNPDKENSMSISILLDNYCHPIALPKHQPTPDPEGDRVRAEMPNQLRKQLEAIIATDPLNPLTAEDKELLWHFRYESLKHPKAYPKLFSSVKWGQQEIVAKTYQLLARREVWDQSALDVGLTMQLLDCNFSDENVRAIAVQKLESLEDDDVLHYLLQLVQAVKFEPYHDSALARFLLKRGLRNKRIGHFLFWFLRSEIAQSRHYQQRFAVILEAYLRGCGTAMLHDFTQQVQVIEMLQKVTLDIKSLSAEKYDVSSQVISQLKQKLENLQNSQLPESFRVPYDPGLKAGALAIEKCKVMASKKKPLWLEFKCADPTALSNETIGIIFKHGDDLRQDMLILQILRIMESIWETESLDLCLLPYGCISTGDKIGMIEIVKDATTIAKIQQSTVGNTGAFKDEVLNHWLKEKSPTEEKFQAAVERFVYSCAGYCVATFVLGIGDRVPFVLTPDFLFVMGTSGKKTSPHFQKFQDICVKAYLALRHHTNLLIIILFSMMLMTGMPQLTSKEDIEYIRDALTVGKNEEDAKKYFLDQIEVCRDKGWTVQFNWFLHLVLGIKQGEKHSAYPYDVPDYA
B2: GST-HEAT: GST fusion protein containing 535-732 amino acid residues of PI3Kγ, including the entire HEAT domain (protein)
chain: HPIALPKHQPTPDDRVRAEMPNQLRKQLEAIIATDTAEDKELLWHFRYESLKHPKAYPKLFSSVKWGQQEIVAKTYQLLARREVWDQSALDVGLTMQLLDCNFSDENVRAIAVQKLESLEDDDVLHYLLQLVQAVKFEPYHDSALARFLLKRGLRNKRIGHFLFWFLRSEIAQSRHYQQRFAVILEAYLRGCGTA
modifications: left off: a dimerising Fc or GST
notes: GST fusion protein containing 535-732 amino acid residues of PI3Kγ, including the entire HEAT domain

What was measured:
[1] = test system: β-arrestin2-GFP; experiment: β-arrestin2-GFP recruitment to the membrane by confocal microscopy; assay type: cell-based; details: isoproterenol; co-expressed mutant protein
Method: Confocal Microscopy—Confocal microscopy was performed as previously described. […] Cells were split into 35 mm^2 dishes with glass bottoms for observation using a Zeiss LSM-510 confocal microscope. […] For analyses of the HEAT domain, HEK 293 cells were transfected with the plasmids containing cDNAs encoding either the β2AR-YFP (2 μg) or β2AR-YFP (2 μg) and HEAT domain (4 μg). Cells were plated onto glass bottom dishes for observation in the confocal microscope. […] Cells were permeablized with 0.1% Triton X-100 in phosphate-buffered saline for 20 min, incubated in 1% BSA in phosphate-buffered saline for 1 hr. Cells were washed with 1× phosphate-buffered saline and incubated with anti-HA or anti-FLAG monoclonal antibody (1:250) with 1% BSA in 1× phosphate-buffered saline for 1 hr. Cells were washed and incubated with goat anti-mouse IgG conjugated with Texas Red (1:500) (Molecular Probes) for 1 hr. Samples were visualized using single sequential line excitation filters at 488 and 568 nm and emission filter sets at 505-550 nm for GFP detection and 585 for Texas Red detection.
To exclude these possibilities cells were co-transfected with plasmids containing FLAG β2AR, β-arrestin2-GFP and either PI3Kγ or ΔPI3Kγ cDNAs, and were monitored for the recruitment of β-arrestin2-GFP using confocal microscopy. […] Marked redistribution of β-arrestin2-GFP to the membrane occurred within 2.5 minutes. […]

[2] = test system: β2AR; experiment: β2AR sequestration in HEK-293 cells by 125I-Cyanopindolol binding; assay type: cell-based; details: 1 μM isoproterenol, 0-30 min; wortmannin 100 nM 15 min before, or co-transfected ΔPI3Kγ
Method: Determination of β2AR Sequestration in HEK-293 Cells by ^125I-Cyanopindolol (CYP) Binding—β2AR sequestration was performed as previously described. Briefly, HEK-293 cells were plated at a density of 2.5×10^6 cells/dish and transfected the following day with plasmids containing either the β2AR (150-250 ng), β2AR (250 ng) and HEAT domain (4 μg), PI3Kγ (4.0 μg) or ΔPI3Kγ (4.0 μg) cDNAs. Twelve hours after transfection cells were split into six well Falcon plates at a density of 750,000 cells/well. […] To determine the amount of internalized receptor, 100 μl aliquots of whole cells were added to 150 μl of binding buffer (75 mM Tris-HCl, 10 mM MgCl2, 5 mM EDTA (pH 7.5)). Total binding was determined in the presence of 175 pM ^125I-CYP alone, the number of internalized receptors were determined by using 175 pM ^125I-CYP plus 100 nM CGP12177, and non-specific binding was determined using 175 pM ^125I-CYP plus 1 μM propranolol. Sequestration was calculated as the ratio of (specific receptor binding of ^125I-CYP in the presence of CGP12177)/(specific receptor binding of ^125I-CYP in the absence of CGP12177).

[3] = target: T2, β2AR (Homo sapiens, UniProt P07550); experiment: Agonist-induced β2AR phosphorylation, 32P metabolic labeling; assay type: cell-based; details: 10 μM isoproterenol 5 min; ΔPI3Kγ co-transfected
T2 construct: expressed in transfected cells; host or cells: HEK-293
Method: β2AR Phosphorylation—β2AR phosphorylation was performed in intact cells as previously described. Cells were transfected with plasmids containing the FLAG β2AR (2 μg) and vector DNA (2.5 μg), the FLAG β2AR (2 μg) and PI3Kγ (2.5 μg), or the β2AR (2 μg) and ΔPI3Kγ (2.5 μg). 24 hr after transfection, cells were washed and metabolically labeled for 1 hr with medium containing 100 μCi of ^32P/ml. […] Following centrifugation at 38000×g for 20 min at 4° C., the supernatants were processed for immunoprecipitation of the FLAG-β2AR as described above. Phosphorylated receptors were resolved by 10% SDS-polyacrylamide gel electrophoresis and dried gels subjected to autoradiography.
To directly test the effect of API3Kγ expression on receptor phosphorylation, ^32P; metabolic labeling was performed in HEK-293 cells transfected with plasmids containing FLAG β2AR and either the PI3Kγ or ΔPI3Kγ cDNAs. […] Thus, the effect of overexpression of ΔPI3Kγ on β2AR sequestration is not related to processes that are involved with β2AR phosphorylation or β-arrestin2 recruitment. In FIG. 6D, Agonist (ISO, 5 min) promoted β2AR phosphorylation in transfected cells after ^32Pi metabolic labeling for 1 hour prior to stimulation (upper panel). Lower panel, immunoblot for HA showing equal levels of expression of HA-PI3Kγ and HA-ΔPIβKγ. + represents HA-PI3Kγ control.

[4] = test system: Gβγ subunits of G-protein; experiment: Pull-down with purified Gβγ; assay type: binding; details: GST-HEAT beads with purified Gβγ
Method: Subsequently, 10 μg of purified Gβγ was added to either βARK1 immobilized beads (5 pg), or the GST-HEAT fusion protein beads (5 μg), and gently rocked for 45 min at room temperature. Beads were spun down, washed in binding buffer X2 and resolved by gel electrophoresis. The presence of Gβγ was detected by immunoblotting with an antibody directed against the Gβ subunit. Purified Gβγ and βARK1 were gifts from Dr. Robert Lefkowitz.
Purified βARK1 and GST-HEAT fusion protein immobilized on sepharose beads were incubated with purified Gβγ. The beads were washed and recovered proteins were analyzed by SDS-PAGE followed by immunoblotting with a Gβ polyclonal antibody. […] Purified Gβγ was loaded as a positive control.

[5] = target: T1, βARK1; experiment: Co-immunoprecipitation and GST pull-down with purified βARK1; assay type: binding; details: sepharose beads, versus GST alone
Method: GST Fusion Protein Expression and Pull-down Experiments—Plasmid DNAs were transformed in Escherichia coli BL21 cells. Overnight cultures were grown in LB medium supplemented with ampicillin (100 μg/ml), diluted to an A600 of 0.2 in the same medium and grown for another 1 hr at 37° C. Cultured cells were then induced with 0.1 mM isopropyl-1-thio-β-D-galactopyranoside for 2 hr. Cell were then pelleted, washed once with 1× phosphate-buffered saline and resuspended in 1× phosphate-buffered saline containing 1 mM phenylmethylsulfonyl fluoride, 2 mg/ml lysozyme and incubated for 15 min on ice. Cells were lysed by adding Triton X-100 1%. Solublized cells were incubated with DNase (300 units) for 15 min on ice and centrifuged at 13,000 rpm for 10 min.
Glutathione-Sepharose beads were added to the supernatant and gently agitated at 4° C. for 2 hr. Beads were washed three times with ice cold 1×PBS containing 1% Triton X-100 followed by three washes with cold PBS without detergent. Protein concentration was determined using a DC protein assay kit (Bio Rad), and the integrity of the fusion protein was analyzed by SDS-polyacrylamide gel electrophoresis and Coomassie staining.
The beads were spun and washed three times with binding buffer followed by three washes with binding buffer without detergent. The beads were resuspended in SDS gel loading buffer and resolved by gel electrophoresis, immunblotting and detection was carried out described later.
FLAG-HEAT and PI3KΔHEAT proteins were immunoprecipitated from cell extracts using monoclonal FLAG and HA antibodies respectively, fractionated by SDS-PAGE and analyzed by immunoblotting with βARK1 monoclonal antibody. […] Levels of expression of HEAT and PI3KΔHEAT proteins were similar (FIG. 8B, lower panel).
To investigate whether there was a direct physical interaction between the HEAT domain of PI3K and βARK1, GST-HEAT fusion protein containing 535-732 amino acid residues of PI3Kγ was produced, which including the entire HEAT domain and flanking upstream 10 amino acids and downstream 7 amino acids. […]

Row | Molecule | recruitment of β-arrestin2-GFP to the receptor/membrane after agonist [1] | rate of β2AR sequestration [2] | level of agonist-induced receptor phosphorylation [3] | association of Gβγ [4] | binding of purified βARK1 to immobilized fusion protein [5]
1 | B1 | prompt recruitment | significant attenuation | not affected |  | 
2 | B2 |  |  |  | no association | bound specifically
